Assay results as given in US20230272056A1 (Merck Sharp & Dohme, published 2023).
Numbering of substitutions follows the chain as printed. Numbers in names are those of the source.

B1: 65BLH (Fab, V domains shown)
VH: EVQLVQSGAEVKKPGASVKVSCKASGYTFTSYDMHWVRQAPGQGLEWMGRIDPQSGGIKYAQKFQGRATLTVDTSTSTAYMELSRLRSDDTAVYYCARWDYGGYFDVWGQGTLVTVSS
VL: DIQMTQSPSSLSASVGDRVTITCRASQDIYNYLNWYQQKPGKAVKLLIYYTSRLETGVPSRFSGSGSGTDYTLTISSLQPEDFATYFCQQGDELPWTFGQGTKLEIK
notes: also called 17BLM Fab
B2: 16BLM (antibody, human IgG1, kappa, L234A L235A, V domains shown)
VH: B1 VH
VL: DIQMTQSPSSLSASVGDRVTITCRASQDIYNYLNWYQQKPGKAVKLLIYYTSVLETGVPSRFSGSGSGTDYTLTISSLQPEDFATYFCQQGDTLPWTFGQGTKLEIKR
notes: IgG1 L234A L235A D265S/kappa; also called 79BLH; 52BMD
B3: 15BLM (antibody, human IgG1, kappa, L234A L235A, V domains shown)
VH: B1 VH
VL: B2 VL with V53R
notes: IgG1 L234A L235A D265S/kappa; also called 78BLH; 51BMD
B4: 19BLM (antibody, human IgG1, kappa, L234A L235A, V domains shown)
VH: B1 VH with W99Y, Y101H
VL: B2 VL with V53Y
notes: IgG1 L234A L235A D265S/kappa; also called 82BLH; 55BMD
B5: 66BLH (Fab, V domains shown)
VH: B1 VH with W99Y, Y101H
VL: B1 VL with E93T
notes: also called 18BLM Fab

Each binder was assayed against T1, human LAP-TGFB1 Fc fusion (human) (assay: SPR pH 7.4, antigen-Fc captured, Fab analyte).
T1 construct: also called human LAP-TGFβ1-Fc; human LAP-TGFβ-Fc isoform 1
T1 sequence (chain, as listed by the source limits assumed): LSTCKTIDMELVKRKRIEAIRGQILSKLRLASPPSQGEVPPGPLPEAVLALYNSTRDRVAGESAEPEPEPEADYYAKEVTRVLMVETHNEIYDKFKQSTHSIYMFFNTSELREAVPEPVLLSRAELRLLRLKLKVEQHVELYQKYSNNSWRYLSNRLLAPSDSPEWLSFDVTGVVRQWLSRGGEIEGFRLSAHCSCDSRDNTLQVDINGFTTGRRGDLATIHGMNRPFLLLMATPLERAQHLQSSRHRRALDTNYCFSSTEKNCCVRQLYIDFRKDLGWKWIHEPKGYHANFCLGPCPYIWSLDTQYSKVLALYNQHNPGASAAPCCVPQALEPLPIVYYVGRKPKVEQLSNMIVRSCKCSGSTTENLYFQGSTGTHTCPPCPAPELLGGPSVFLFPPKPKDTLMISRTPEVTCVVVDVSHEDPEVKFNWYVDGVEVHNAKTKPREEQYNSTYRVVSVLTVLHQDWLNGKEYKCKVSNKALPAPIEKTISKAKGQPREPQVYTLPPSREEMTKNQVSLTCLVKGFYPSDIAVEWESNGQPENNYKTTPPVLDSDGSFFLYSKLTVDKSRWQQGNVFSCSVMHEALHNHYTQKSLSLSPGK

Binder | Kd [nM] | koff [s⁻¹] | kon [M⁻¹ s⁻¹]
B1 | 0.146 | 0.00107 | 7.33e+06

Each binder was assayed against T1, human LAP-TGFB1 Fc fusion (assay: SPR pH 6.0, antigen captured on Fab 54BLH).
Description: (§1) A Series S C1 sensor chip (Cytiva, catalog BR100535) was immobilized with low densities of high affinity Fab 54BLH on a Biacore T200 instrument with 1×HBS-EP+(Teknova, catalog H8022). This surface served as a monovalent capture surface for a low-density layer of heterodimer human LAP-TGFβ1 complex leaving the second binding site exposed for monovalent kinetic binding analysis with both mAbs and Fabs. Immobilized flow cell 1 served as the reference and flow cells 2, 3 and 4 were used to evaluate the binding interaction between human LAP-TGFβ1 and yeast display mutant mAbs and Fabs.
(§2) Approximately 15-25 RU of human LAP-TGFβ1-Fc was captured to the Fab capture surface followed by injection of 1:3 serially diluted Fabs and mAbs from 6 nM to 0.07 nM (Fabs: 54BLH, 55BLH, 60BLH, 63BLH, 64BLH-mAbs: 69BLH, 70BLH) and 1:3 serially diluted Fab and mAbs from 60 nM to 0.74 nM (Fabs: 59BLH, 66BLH, 67BLH—mAbs: 74BLH, 75BLH, 78BLH, 79BLH, 81BLH, 82BLH) including 0 nM. The binding data was double referenced by subtraction of signal from a reference flow cell and the 0 nM injections for evaluation of Fabs and mAbs respectively. Binding rate constants were calculated/determined by fitting the data with a 1:1 binding model (Cytiva Biacore T200 Evaluation software 3.0).

Binder | Fab/mAb KD Ratio | Kd [nM] | koff [s⁻¹] | kon [M⁻¹ s⁻¹]
B2 | 1.6 | 0.11 | 0.00122 | 1.12e+07
B3 | 3.2 | 0.331 | 0.00399 | 1.21e+07
B4 | 5.5 | 3.43 | 0.0365 | 1.07e+07
B5 | – | 16.8 | 0.0329 | 1.96e+06

Each binder was assayed against T1, human LAP-TGFB1 Fc fusion (assay: SPR pH 6.0, antigen-Fc captured, Fab analyte).
Description: A Series S CM4 sensor chip (Cytiva, catalog BR100534) was immobilized with an anti-human Fc capture antibody following the kit protocol (Cytiva, catalog BR100839) on a Biacore T200 instrument with 1× HBS-EP+ (Teknova, catalog H8022). […] The binding data were double referenced by subtraction of signal from a reference (capture surface only) flow cell and the 0 nM Fab injection. Binding rate constants were determined by fitting the data with a 1:1 binding model (Cytiva Biacore T200 Evaluation software 3.0).

Binder | koff [s⁻¹] | kon [M⁻¹ s⁻¹]
B5 | 0.0221 | 2.09e+06

Each binder was assayed against T2, human LAP-TGFβ1 (construct not stated) (human, UniProt P01137 30-390) (assay: KinExA, mAb as constant binding partner).
T2 construct: also called human LAP-TGFβ isoform 1; titrant
T2 sequence (P01137 30-390 limits assumed): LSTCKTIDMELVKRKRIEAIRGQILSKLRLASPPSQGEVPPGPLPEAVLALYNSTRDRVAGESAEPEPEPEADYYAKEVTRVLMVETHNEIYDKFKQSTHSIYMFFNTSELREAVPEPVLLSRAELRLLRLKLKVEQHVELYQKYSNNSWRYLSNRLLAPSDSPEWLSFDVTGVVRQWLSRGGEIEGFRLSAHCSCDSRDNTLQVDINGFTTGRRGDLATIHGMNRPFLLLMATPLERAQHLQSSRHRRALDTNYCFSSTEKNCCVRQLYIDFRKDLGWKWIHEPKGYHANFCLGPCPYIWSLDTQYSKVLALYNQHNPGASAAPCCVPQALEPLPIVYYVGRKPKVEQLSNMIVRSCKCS
Description: An orthogonal kinetic exclusion assay (KinExA) method was used in this study to measure the affinities of affinity-matured anti-LAP-TGFβ1 antibodies (referred to as the constant binding partner, CBP) and human LAP-TGFβ1 (referred to as the titrant). To determine the free CBP concentration in solution, biotinylated human LAP-TGFβ1 coated PMMA (Sapidyne, catalog 440176) beads were prepared by first coating with biotin-BSA (ThermoScientific, catalog 29130) followed by streptavidin (Invitrogen, catalog S888), and a final coat with biotinylated human LAP-TGFβ1-Fc.
For association rate analysis, an experimentally optimized constant concentration of CBP and titrant, were mixed 1:1 and free CBP was measured at timed intervals ranging from 15 to 10000 seconds. […] The data were analyzed with KinExA Pro software (version 4.4.26) where the free CBP binding signals were converted into percent free response, plotted against time (seconds) and processed with the n-curve software “Kinetics, Direct” analysis method.
For equilibrium affinity analysis, two experimentally optimized CBP concentrations were combined with 1:2 serially diluted titrant, human LAP-TGFβ1, and incubated at room temperature to achieve equilibrium. […] The data was analyzed with KinExA Pro software (version 4.4.26) where the free CBP binding signals were converted into percent free response and plotted against the titrant concentration series. The equilibrium KD was determined by processing with n-curve software “Equilibrium” analysis method.

Binder | Kd [nM] | koff [s⁻¹] | kon [M⁻¹ s⁻¹]
B2 | 0.00275 | 1.38e-05 | 5.03e+06
B3 | 0.00235 | 2.56e-05 | 1.09e+07
B4 | 0.068 | 1.98e-06 | 29200

The binders below were run against human LAP-TGFβ1 expressed on P3U1 cells (human, UniProt P01137 30-390) (assay: cell-based or functional assay).
Chain of human LAP-TGFβ1 expressed on P3U1 cells (P01137 30-390): as the sequence (P01137 30-390 limits assumed) above

Binder | Average EC50 [µg/mL] | ELISA assay 2 EC50 [µg/mL] | ELISA assay #1 EC50 [µg/mL]
B2 | 0.104 | 0.126 | 0.0816
B3 | 0.231 | 0.243 | 0.219
B4 | 0.179 | 0.205 | 0.152

These binders were tested against T3, human LAP-TGFB3 Fc fusion (human) (assay: SPR pH 7.4).
T3 construct: also called human LAP-TGFβ3; LAP-TGFβ isoform 3
T3 sequence (chain, as listed by the source limits assumed): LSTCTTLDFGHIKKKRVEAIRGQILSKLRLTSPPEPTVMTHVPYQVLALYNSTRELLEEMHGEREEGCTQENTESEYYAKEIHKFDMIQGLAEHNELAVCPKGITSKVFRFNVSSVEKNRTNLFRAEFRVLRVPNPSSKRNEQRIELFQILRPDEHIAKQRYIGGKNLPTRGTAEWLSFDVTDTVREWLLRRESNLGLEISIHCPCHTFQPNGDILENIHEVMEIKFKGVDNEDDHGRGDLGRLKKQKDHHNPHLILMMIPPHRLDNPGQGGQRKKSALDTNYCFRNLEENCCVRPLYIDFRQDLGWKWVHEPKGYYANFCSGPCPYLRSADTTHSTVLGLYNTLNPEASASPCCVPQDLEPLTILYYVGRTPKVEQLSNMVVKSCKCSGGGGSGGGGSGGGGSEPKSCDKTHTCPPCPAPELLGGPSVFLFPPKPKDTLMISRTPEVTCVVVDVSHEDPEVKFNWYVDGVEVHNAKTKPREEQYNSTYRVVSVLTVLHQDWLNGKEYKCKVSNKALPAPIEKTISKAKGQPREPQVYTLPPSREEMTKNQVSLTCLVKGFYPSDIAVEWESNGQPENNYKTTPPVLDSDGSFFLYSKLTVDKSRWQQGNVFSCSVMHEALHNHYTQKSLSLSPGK

Binder | binding result
B5 | no binding (tested: 1000 nM Fab)
B1 | no binding (tested: 1000 nM Fab)

What follows are binders tested against T4, human LAP-TGFB2 Fc fusion (human) (assay: SPR pH 7.4).
T4 construct: also called human LAP-TGFβ2; LAP-TGFβ isoform 2
T4 sequence (chain, as listed by the source limits assumed): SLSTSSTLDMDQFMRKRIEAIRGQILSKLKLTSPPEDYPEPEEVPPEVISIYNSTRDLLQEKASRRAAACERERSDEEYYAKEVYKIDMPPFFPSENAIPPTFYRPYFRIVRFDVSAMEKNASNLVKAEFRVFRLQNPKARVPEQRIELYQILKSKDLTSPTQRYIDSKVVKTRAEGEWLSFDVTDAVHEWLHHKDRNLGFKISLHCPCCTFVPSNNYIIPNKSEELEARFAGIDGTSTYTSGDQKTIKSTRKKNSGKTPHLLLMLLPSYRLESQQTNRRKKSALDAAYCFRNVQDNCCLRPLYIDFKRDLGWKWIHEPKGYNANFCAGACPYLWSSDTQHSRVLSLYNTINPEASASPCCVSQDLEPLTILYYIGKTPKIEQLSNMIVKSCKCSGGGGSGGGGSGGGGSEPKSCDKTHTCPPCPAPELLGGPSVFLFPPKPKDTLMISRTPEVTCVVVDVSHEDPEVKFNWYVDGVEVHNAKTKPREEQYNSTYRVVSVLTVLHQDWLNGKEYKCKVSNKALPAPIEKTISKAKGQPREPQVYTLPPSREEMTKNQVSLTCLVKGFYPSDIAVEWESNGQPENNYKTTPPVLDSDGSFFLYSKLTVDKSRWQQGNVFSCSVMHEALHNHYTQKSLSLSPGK

Binder | binding result
B5 | no binding (tested: 1000 nM Fab)
B1 | no binding (tested: 1000 nM Fab)

Target: T1, human LAP-TGFB1 Fc fusion
Assay: SPR pH 7.4, antigen-Fc captured, Fab analyte
Remark: another data set of the same source

Binder | Fold improvement in KD [fold] | Kd [nM] | koff [s⁻¹] | kon [M⁻¹ s⁻¹]
B5 | 16 | 3.73 | 0.00764 | 2.05e+06
B1 | 401 | 0.146 | 0.00107 | 7.33e+06

These binders were tested against T1, human LAP-TGFB1 Fc fusion (assay: SPR pH 7.4, antigen captured on Fab 54BLH).
Description: as §1, §2

Binder | Fab/mAb KD Ratio | Kd [nM] | koff [s⁻¹] | kon [M⁻¹ s⁻¹]
B2 | 1.6 | 0.038 | 0.000552 | 1.44e+07
B3 | 4 | 0.0876 | 0.00196 | 2.22e+07
B4 | 13.3 | 0.178 | 0.014 | 7.82e+07
B5 | – | 3.13 | 0.0181 | 5.76e+06

These binders were tested against T1, human LAP-TGFB1 Fc fusion (assay: SPR).

Binder | Fold change in KD from pH 7.4 to pH 6 [fold]
B1 | 0.4
